Here are results for two molecules from patent US20160216264A1 (WASHINGTON UNIVERSITY, published 2016).

The target in experiment [1] is T1, peptide 2 (synthetic peptide corresponding to the epitope for mAb 12H06) (human).
T1 peptide: RPYYQGLIDKYC
Kind of experiment: peptide preincubation (one hour), then immunoblot. The protocol: (§1) FIG. 4A and FIG. 4B depict images of immunoblots showing confirmation of specific antibody epitopes by blocking mAb binding to endogenous MIOX. (FIG. 4A) The peptides corresponding to the epitopes for mAb 01D10 (peptide 1) and mAb 12H06 (peptide 2) were synthesized. mAb 01D10 was pre-incubated for one hour with buffer alone, 100 μg/ml peptide 1, or 100 μg/ml peptide 2. (FIG. 4B) Western inhibition of mAb 12H06 using either peptide 1 or peptide 2.
(§2) The linear epitopes of the anti-MIOX antibodies were determined by use of spot-peptide membrane arrays containing the full length amino acid sequence of MIOX. The two mouse monoclonal antibodies mapped to opposite ends of the MIOX sequence (FIG. 3B). The antibody designated 01D10 mapped to the N-terminal sequence of MIOX (FIG. 3C). The peptide spots were decoded to reveal the sequence P9-V21. The mouse monoclonal antibody designated 12H06 mapped to the C-terminal region of MIOX (FIG. 3C). The peptide spots were decoded to reveal the epitope sequence R268-C279. […] The peptide epitope recognized by the 12H06 mouse monoclonal antibody was 100% identical to the corresponding mouse and rat Miox peptide sequence. The peptide epitope recognized by the 01D10 mouse monoclonal antibody was 92% identical to the corresponding mouse and rat Miox peptide sequence. […]

Experiment [2] addresses T2, peptide 1 (synthetic peptide corresponding to the epitope for mAb 01D10) (human).
T2 peptide: PSLVYRPDVDPEV
Kind of experiment: peptide preincubation, then immunoblot. Here is the method: as §1, §2

Experiment [3] concerns the target T3, mouse myo-inositol oxygenase (Miox) (mouse, UniProt Q9QXN5 1-285).
T3 construct: also called mouse Miox; mouse MIOX
T3 sequence (looked up): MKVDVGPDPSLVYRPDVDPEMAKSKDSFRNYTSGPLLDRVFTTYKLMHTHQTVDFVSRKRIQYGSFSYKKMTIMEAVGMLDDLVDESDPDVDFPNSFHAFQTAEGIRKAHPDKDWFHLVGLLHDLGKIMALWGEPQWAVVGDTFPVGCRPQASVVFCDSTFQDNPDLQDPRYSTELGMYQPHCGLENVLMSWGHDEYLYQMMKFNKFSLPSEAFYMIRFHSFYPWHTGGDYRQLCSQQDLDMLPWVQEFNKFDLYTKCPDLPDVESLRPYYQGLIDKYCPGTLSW
Kind of experiment: Western blot of mouse kidney homogenate. The protocol: (§3) The cross-species immunoreactivity of the anti-MIOX monoclonal antibodies was investigated (FIG. 3D,E). Human, mouse, and rat kidney homogenates were separately probed with both monoclonal anti-MIOX antibodies.
(§4) Normal human kidney homogenate was purchased from G-Biosciences (NLH-04, G-Biosciences). Mouse and rat kidney homogenate was purchased from G-Biosciences, St. Louis, Mo. Western blotting was performed as previously described (Laterza O F, et al. Clin Chem 2006; 52:1713-1721). Blots were probed with 0.004 mg/mL of the rabbit polyclonal anti-MIOX antibody R9544 or 0.004 mg/mL of either the 01D10 or 12H06 mouse anti-MIOX monoclonal antibody. Where indicated, both monoclonal antibodies were used simultaneously, each at the above concentrations.

In experiment [4] the target is T4, rat myo-inositol oxygenase (Miox) (rat, UniProt Q9QXN4 1-285).
T4 construct: also called rat Miox; rat MIOX
T4 sequence (looked up): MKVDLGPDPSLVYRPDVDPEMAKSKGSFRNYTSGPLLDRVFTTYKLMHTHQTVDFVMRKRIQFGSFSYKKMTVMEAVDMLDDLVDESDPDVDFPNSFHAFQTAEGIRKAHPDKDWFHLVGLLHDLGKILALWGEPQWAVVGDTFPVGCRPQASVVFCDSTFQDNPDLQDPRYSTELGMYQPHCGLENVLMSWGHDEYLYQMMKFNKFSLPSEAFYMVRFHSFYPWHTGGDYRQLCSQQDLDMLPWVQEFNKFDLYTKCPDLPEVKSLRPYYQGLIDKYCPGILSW
The experiment in a line: Western blot of rat kidney homogenate. The protocol:
as §3, §4
For orientation: A western blot detects proteins with antibodies after separation by electrophoresis.

B1: mouse monoclonal anti-MIOX antibody 01D10 (antibody, IgG2b, V domains shown)
VH: QVQLQQSGPELVKPGASVKISCKASGYSFTSYYIHWVKQRPGQGLEWIGWIYPGSGNSKYNEKFKGKATLTADTSSSTAYMQLSSLTSEDSAVYYCARDGSTYNWNFDVWGTGTTVTVSS
VL: DIQMTQSPASLSASVGETVTITCRTSGNIHNYLAWYQQKQGKSPQLLVYNAKTLADGVPSRFSGSGSGTQYSLKINSLQPEDFGSYYCQHFWSIPFTFGSGTKLEIKR
notes: they run a few residues into the constant regions; Biotinylated when used as capping antibody in the sandwich immunoassay; also called mAb 01D10
Regarding B1, in experiment [1], the binding result is given as “no binding (tested: 100 µg/ml)”.

B2: mouse monoclonal anti-MIOX antibody 12H06 (antibody, IgG2b, V domains shown)
VH: QVQLQQPGAELVRPGTSVKLSCKASGYTFTSYWMHWVKQRPGQGLEWIGLIDPSDSYTNYNQKFKGKATLTVDTSSSTASMQLSSLTSEDSAVYYCVRTYYHSSYFFAYWGQGTLVTVSS
VL: DIVVTQSPASFAVSLGQRATISCRASKSVSTSGYSYINWYQQKPGQPPKLLIYLASNLESGVPARFSGSGSGTDFTLNIHPVEEEDAATYYCQHSRELPLTFGAGTRLELK
notes: the VH entry runs a few residues into CH1; also called mAb 12H06
In the case of B2, the binding result in experiment [2] was “no binding (tested: 100 µg/ml)”; in experiment [3] it was “binds”; in experiment [4], “binds”.
